What all share (experiment): BLI
In assay [1] the target is NRP2 a2b1b2 (human neuropilin 2 residues 145-595, monoFc-tagged) (human) (UniProt O60462).
Assay [2] concerns the target monoFc-tagged NRP2 (human neuropilin 2 residues 23-595, a1a2b1b2) (human) (UniProt O60462).
Assay [3] addresses soluble ectodomain of the HCMV Pentamer (strain Towne) (Human cytomegalovirus strain Towne, UniProt P17176;F5HCH8;P16837;F5HCP3;F5HET4).

Sequence of monoFc-tagged NRP2 (human neuropilin 2 residues 23-595, a1a2b1b2) (human) (O60462 23-595): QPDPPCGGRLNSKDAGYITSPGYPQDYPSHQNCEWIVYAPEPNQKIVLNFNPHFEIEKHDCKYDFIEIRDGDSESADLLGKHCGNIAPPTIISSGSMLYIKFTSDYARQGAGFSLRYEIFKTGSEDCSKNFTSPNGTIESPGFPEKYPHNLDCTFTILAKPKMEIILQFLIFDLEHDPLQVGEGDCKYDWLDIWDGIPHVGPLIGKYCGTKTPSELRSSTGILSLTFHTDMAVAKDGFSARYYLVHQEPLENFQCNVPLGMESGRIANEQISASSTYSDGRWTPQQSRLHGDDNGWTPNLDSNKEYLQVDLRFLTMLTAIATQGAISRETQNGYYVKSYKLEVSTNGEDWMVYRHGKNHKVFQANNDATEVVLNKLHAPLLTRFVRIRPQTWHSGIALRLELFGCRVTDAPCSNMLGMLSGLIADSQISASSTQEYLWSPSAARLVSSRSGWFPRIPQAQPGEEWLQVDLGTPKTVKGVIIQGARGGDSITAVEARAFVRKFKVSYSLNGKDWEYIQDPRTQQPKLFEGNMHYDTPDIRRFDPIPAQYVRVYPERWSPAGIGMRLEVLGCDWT
Sequence of NRP2 a2b1b2 (human neuropilin 2 residues 145-595, monoFc-tagged) (human) (O60462 145-595): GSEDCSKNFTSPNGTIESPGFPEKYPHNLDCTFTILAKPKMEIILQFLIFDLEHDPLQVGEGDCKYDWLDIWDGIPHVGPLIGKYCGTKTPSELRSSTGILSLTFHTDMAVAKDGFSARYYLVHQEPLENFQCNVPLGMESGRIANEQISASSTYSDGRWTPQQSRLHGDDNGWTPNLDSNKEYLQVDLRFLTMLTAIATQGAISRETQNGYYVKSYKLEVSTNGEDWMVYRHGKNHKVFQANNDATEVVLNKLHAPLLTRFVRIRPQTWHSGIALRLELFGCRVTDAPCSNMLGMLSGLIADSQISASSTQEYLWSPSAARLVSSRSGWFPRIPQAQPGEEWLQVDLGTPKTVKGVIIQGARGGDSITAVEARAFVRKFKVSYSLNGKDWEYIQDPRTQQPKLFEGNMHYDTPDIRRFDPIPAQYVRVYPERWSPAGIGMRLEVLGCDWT

A word on the Kd: it is a measure of binding affinity in units of concentration. A lower Kd goes with a tighter complex. Consider “soluble ectodomain of the HCMV Pentamer (strain Towne) (from UniProt P17176 24-718) (complex)”, for which the values for the dissociation constant (Kd) in assay [1] and in assay [2] were 7.9 nM and 2.2 nM, respectively.

B1: 1-32 IgG (antibody, V domains shown)
VH: QVKLVESGGGVVQPGRSLRLSCAGSGFAFDNYAMHWVRQAPGKGLEWVAVISLEGRNKYYAGPAKGRFSISRDNSRNTVHLQMNSLRPEDTAVYFCARDMRYYYDSNGHYRNRYGMDVWGQGTTVIVSS
VL: DIQMTQSPSSLSASVGDSVTITCQASQDINQFVSWYQQKPGKPPKLLIYDASNLESGVPSRFSGSGSGTHFTFTISSLQPDDIATYYCQQYENLFTFGPGTKVDIK
In the case of B1, the binding result in assay [3] is “binds”.

The record behind these values is publication doi:10.1101/2021.03.25.436804 (bioRxiv, 2021).
